Test results reported in the supplement of paper PMC9170038.

How the values were obtained:
MS2 coat protein [1] = experiment: apparent KD of MS2 coat protein, switch ON state; designed switch direction (-1 OFF switch, 1 ON switch): -1; higher = weaker reporter binding; settings: FMN input: 0 or 200 uM; Eterna round: R93 (includes R88 designs)
Outline: (§1)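 Illumina sequencing clusters were used for on-chip transcription of designed RNA switches. Titration with SNAP-549-labelled MS2 coat protein followed, in twofold steps from 0.7 or 1.5 nM to 3 µM in 100 mM Tris-HCl pH 7.5, 80 mM KCl, 4 mM MgCl2, without or with constant ligand. Apparent KD is each design's median of fits to normalised cluster binding curves.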

MS2 coat protein [2] = experiment: apparent KD of MS2 coat protein, switch OFF state (with FMN for OFF switches, without FMN for ON switches); designed switch direction (-1 OFF switch, 1 ON switch): -1; higher = weaker reporter binding; settings: FMN input: 0 or 200 uM; Eterna round: R93 (includes R88 designs)
Outline: as §1

GGUUGGCGAGGAUAUACAUGAGGAUCACCCAUGUGAGAGAAAAAAGUGAGACAGAAAAGUAGAAGGCGCUGACG [salish99-ex3-24]
apparent KD of MS2 coat protein (MS2 coat protein [1]): 65.8 nM
apparent KD of MS2 coat protein (MS2 coat protein [2]): 7.45 nM

AAAAAGUGAGGAUAUACGUUAAAAAAAAAAAAAAAAAAGCGGUAGAAGGCACAUGAGGAUCACCCAUGUAAAAA [Ex4 Malc#3]
apparent KD of MS2 coat protein (MS2 coat protein [1]): 57.7 nM
apparent KD of MS2 coat protein (MS2 coat protein [2]): 34.7 nM

AAAAAUGGAGGAUAUACAUGAGGAUCACCCAUGUUAGACCUAAAAAAAGGGAAAGAAAGUAGAAGGCCAUAAAA [Ex 3 May 29]
apparent KD of MS2 coat protein (MS2 coat protein [1]): 17.5 nM
apparent KD of MS2 coat protein (MS2 coat protein [2]): 20.6 nM

AAGAAGUAAGGAUAUCGAAGACUGUCGAAAAGACAGUCGAACGAGAAGGUACAUGAGGAUCACCCAUGUGAGAA [Opal 24]
apparent KD of MS2 coat protein (MS2 coat protein [1]): 25.5 nM
apparent KD of MS2 coat protein (MS2 coat protein [2]): 41 nM

AAAAAGUCAGGAUAUGUAGCAUGAUACGAAAGUAUCAUGCUACAGAAGGGACAUGAGGAUCACCCAUGUGAUCA [Ex4: 938]
apparent KD of MS2 coat protein (MS2 coat protein [1]): 365 nM
apparent KD of MS2 coat protein (MS2 coat protein [2]): 33.2 nM

CCCAUGUCAGGAUAUCAGUAGUAAAAAAAAAAAAUUACUACUGAGAAGGGACAUGAGGAUCACCCAUGUUCAAA [EX4 317: Super Stable 17]
apparent KD of MS2 coat protein (MS2 coat protein [1]): 33.4 nM
apparent KD of MS2 coat protein (MS2 coat protein [2]): 28.2 nM

AAACCACAUGAGGAUCACCCAUGUCAGGAUAUGAACGAAAAUAAAUAAAAAUAAAAGUUCAGAAGGGACAAAAA [66%, Wbt, 13]
apparent KD of MS2 coat protein (MS2 coat protein [1]): 42.3 nM
apparent KD of MS2 coat protein (MS2 coat protein [2]): 77.2 nM

AAGGUACGAGGAUAUACAUAGAUACAGACACAUGUUCAUGUACAUGAGGAUCACCCAUGUAGAAGGCGUAUAUA [AJ 17]
apparent KD of MS2 coat protein (MS2 coat protein [1]): 56.7 nM
apparent KD of MS2 coat protein (MS2 coat protein [2]): 147 nM

AAAGUACGAGGAUAUACAUAGAUACAGAUACAUGUAGACGUACAUGAGGAUCACCCAUGUAGAAGGCGUACAAG [Mat - Same state - Mayanna Mod - D116]
apparent KD of MS2 coat protein (MS2 coat protein [1]): 172 nM
apparent KD of MS2 coat protein (MS2 coat protein [2]): 327 nM

AAGAAGUGAGGAUAUGCUUGUCGUCACAAAAGUGAUGACGAGCAGAAGGCACAUGAGGAUCACCCAUGUAAAGA [Opal 27]
apparent KD of MS2 coat protein (MS2 coat protein [1]): 37.1 nM
apparent KD of MS2 coat protein (MS2 coat protein [2]): 49.9 nM

AAGAAGUCAGGAUAUCGAAGACAGACGAAAAGUCUGUCAAACGAGAAGGGACAUGAGGAUCACCCAUGUAAGAA [What have we learned so far? 64% 1]
apparent KD of MS2 coat protein (MS2 coat protein [1]): 44.9 nM
apparent KD of MS2 coat protein (MS2 coat protein [2]): 60.4 nM

CACGUACAUGAGGAUCACCCAUGUUAGGAUAUGCCGGGUAAGAGAAAACUAAAAACCCGUAGAAGGGACGAAAC [Bilbo Confounded 13 - Jieux - Exclusion 1]
apparent KD of MS2 coat protein (MS2 coat protein [1]): 23.3 nM
apparent KD of MS2 coat protein (MS2 coat protein [2]): 28.6 nM

AAAAAGGAAGGAUAUACGAACAUGUCAAAAGACGUGAAGGGACAUGAGGAUCACCCAUGUAGAAGGUCCAAAAA [JL Half Open 23]
apparent KD of MS2 coat protein (MS2 coat protein [1]): 83.4 nM
apparent KD of MS2 coat protein (MS2 coat protein [2]): 99.6 nM

AGAAAGUCAGGAUAUACAGAAAAAAAAACGAAAAAAAAUCUGUAGAAGGGACAUGAGGAUCACCCAUGUAAAGA [Mat - Exclusion 4 - Mayanna - D124]
apparent KD of MS2 coat protein (MS2 coat protein [1]): 66.1 nM
apparent KD of MS2 coat protein (MS2 coat protein [2]): 36.8 nM

AAGAACUGAGGAUAUACAUGAGGAUCACCCAUGUAAAAGAAAGAAGGGAAAGAGAAAAGUAGAAGGCAGAAGAA [Inamunnifnebu]
apparent KD of MS2 coat protein (MS2 coat protein [1]): 20.6 nM
apparent KD of MS2 coat protein (MS2 coat protein [2]): 27.8 nM

AAAACACAUGAGGAUCACCCAUGUGAGGAUAUGCUAUGGAAAAUAAAAAUAAAACAUAGCAGAAGGCGCAGGAA [Denovo 20]
apparent KD of MS2 coat protein (MS2 coat protein [1]): 29.8 nM
apparent KD of MS2 coat protein (MS2 coat protein [2]): 22.9 nM

AAAAAACAUGAGGAUCACCCAUGUGAGGAUAUACAAAACCCAUAUAAAAAGGGAAAAAGUAGAAGGCGCAAAAA [wbt round 1 mod 8]
apparent KD of MS2 coat protein (MS2 coat protein [1]): 20.8 nM
apparent KD of MS2 coat protein (MS2 coat protein [2]): 24.3 nM

CCCUCACAUGAGGAUCACCCAUGUGAGGAUAUGCAUAAAAAAAAAAAAAAAAAAAAAUGCAGAAGGCACAUGAA [jn_irvington]
apparent KD of MS2 coat protein (MS2 coat protein [1]): 13 nM
apparent KD of MS2 coat protein (MS2 coat protein [2]): 11.1 nM

AAGAAGUCAGGAUAUGCUGCUCGUCACAAAAGUGAUGAGUAGCAGAAGGGACAUGAGGAUCACCCAUGUAAACA [Opal 34]
apparent KD of MS2 coat protein (MS2 coat protein [1]): 37.6 nM
apparent KD of MS2 coat protein (MS2 coat protein [2]): 47.2 nM

AACAGUACAGGAUAUACAUGAGGAUCACCCAUGUGAAAAUUAAGUGGCGUACCACAAGGUAGAAGGGUACUGGA [Moding Maslow Revisited (73) 27]
apparent KD of MS2 coat protein (MS2 coat protein [1]): 32.7 nM
apparent KD of MS2 coat protein (MS2 coat protein [2]): 129 nM

ACAAGGUCAGGAUAUACAUGAGGAUCACCCAUGUGAGAAUUCGAUUAAAACACACAAAGUAGAAGGGACCAGGA [Ruby 83]
apparent KD of MS2 coat protein (MS2 coat protein [1]): 22 nM
apparent KD of MS2 coat protein (MS2 coat protein [2]): 33.6 nM

AACAGUACAGGAUAUACAUGAGGAUCACCCAUGUGAGACUUAAGUGGCGUACCACAAAGUAGAAGGGUACUGGA [JL Maslow Revisted mod 8]
apparent KD of MS2 coat protein (MS2 coat protein [1]): 84.1 nM
apparent KD of MS2 coat protein (MS2 coat protein [2]): 386 nM

UUCAAGUGAGGAUAUACGAAUAGUAAGUAAGUAUAACAGACGUAGAAGGCACAUGAGGAUCACCCAUGUAAAUA [JR_Exc004_Sub304]
apparent KD of MS2 coat protein (MS2 coat protein [1]): 25.8 nM
apparent KD of MS2 coat protein (MS2 coat protein [2]): 22.5 nM
